How the values were obtained:
Experiment in all cases: pull-down binding Z-score (relative to library population); higher = stronger binding
Conditions in all cases: RNA library: Library-2
[1] = system: TO-3-N3 (biotin conjugate)
Method in brief: (§1)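 Biotin-conjugated small molecule (100 pmol) on streptavidin beads was incubated with 1 μg of heat-folded Cy5- or Cy3-end-labelled RNA library in phosphate/NaCl/KCl buffer at 25 °C for 60 min. Following three washes, RNA was eluted with hot SDS and hybridised at 55.5 °C for 20 h to a DNA barcode microarray. The binding value is a Z-score computed from the library mean and standard deviation, after subtraction of beads without compound and averaging of barcoded replicate probes with the highest and lowest excluded.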

[2] = system: TO-3-N3-2 (biotin conjugate)
Method in brief: as §1

TO-N3 (biotin conjugate) = system: TO-N3 (biotin conjugate)
Method in brief: as §1

[3] = system: TO-N3-2 (biotin conjugate)
Method in brief: as §1

Sequence	pull-down binding Z-score [1]	pull-down binding Z-score [2]	pull-down binding Z-score (TO-N3 (biotin conjugate))	pull-down binding Z-score [3]
GUUAGUACAACUACUAAC [SHAPE_invivo_SARS-CoV-2_Motif_138]	-0.759	-0.398	-1.06	-0.963
GCUUGCAUACGUAGACCAUUCUUAUGUUGUAAAUGCUGUUACGACCAUGUCAUAUCAACAUCACAUAAAUUAGUCUUGUCUGUUAAUCCGUAUGUUUGCAAUGC [DMSMaPseq_invitro_SARS-CoV-2_Motif_294]	-0.654	-0.304	-0.546	-0.437
UAGGCACGGCACUUGUGAAAGAUCAGAAGCUGGUGUUUG	-0.0752	-0.246	0.0405	0.362
UGUGACUGGACA [SHAPE_invivo_SARS-CoV-2_Motif_313]	0.86	-0.233	0.774	-0.14
UGAUGCAGCCAUGCAACGUAAGUUGGAAAAGAUGGCUGAUCA	-1.03	-0.36	-1.16	-0.974
ACAACAGGAGUCACCUUUUGU [DMSMaPseq_invitro_SARS-CoV-2_Motif_108]	-0.879	-0.592	-1.15	-1.07
AUGAGGUUUAGAAGAGCUUUUGGUGAAUACAGUCAUGUAGUUGCCUUUAAUACUUUACUAUUCCUUAU	-0.216	0.205	-0.296	-0.689
GACAUCACUUUCUUAAAGAAAGAUGCUCCAUAUAUAGUGGGUGAUGUU [DMSMaPseq_invitro_SARS-CoV-2_Multi_15_ComplexLevel_1]	-0.0756	-0.0858	-0.173	-0.466
CCACGCUCGUUCCGACACCGGAACGGCACUCGACACCGAGUGCAGCGUGG [3-way model-3_NoName]	1.17	1.41	1.51	1.93
CUUUAGUAAUUACCUAAAGAGACGUGUAGUCUUUAAUGGUGUUUCCUUUAG	-0.924	-0.575	-1.09	-1.17
AAUCAAAAAGAGUUGAUU [DMSMaPseq_invitro_SARS-CoV-2_Motif_439]	-0.396	-0.434	-0.416	-1.22
ACAGAAUGCUGU	-0.821	-0.472	-1.14	-1.19
UGUGGAAAGGGCUAUCAUCUUAUGUCCUUCCCUCA [DMSMaPseq_invitro_SARS-CoV-2_Motif_440]	-0.089	-0.0817	-0.154	-0.837
CCACAUUUUCACCGAGGCCACGCGGAGUACGAUCGAGUGUACAGUGAACAAUGCUAGG	-0.147	0.563	0.772	1.34
GCCCCAUUCCUUGAUCGGCUUCGCCGAGAUCAGAAAUCCCUAAGAGGAAGGGGC [IAV_invivo_NS1_NEP_8_Motif_3+IAV_invivo_NS1_NEP_8_Motif_3]	-0.845	-0.223	-0.849	0.181
CGCAGGGAAUGGAUAAUCUUGCCUGCG	-0.486	-0.153	-0.607	-0.759
GUUGUAGACGGUUGUAAUUCAUCAACUUGUAUGAUGUGUUACAAACGUAAUAGAGC [SHAPE_invivo_SARS-CoV-2_Motif_153]	-0.547	-0.153	-0.562	-0.564
UGUAAAUCACAUAAACCACCCAUUAGUUUUCCAUUGUGUGCUAAUGGACAAGUUUUUGGUUUAUA	-0.529	0.371	-0.491	-0.995
UAGUACAACAGGAGUCACCUUUUGUUAUGAUGUCAGCACCACCUGCUCAGUAUGAACUUAAGCAUGGUACAUUUACUUGUGCUA	-0.521	-0.518	-0.168	-0.0314
CCUGCCUGCCUGCCUG [r(CCUG)4]	0.588	0.0557	0.872	0.703
GGAAGACCUUAAAUUCCCUCGAGGACAAGGCGUUCC	-0.756	-0.381	-0.658	-0.19
CUCCAGCACGGAG [IAV_invivo_PB2_1_Motif_21+IAV_invivo_PB2_1_Motif_21]	-0.457	-0.425	-0.877	-1.17
GCCACUAGUCUCUAGUCAGUGUGUUAAUCUUACAACCAGAACUCAAUUACCCCCUGCAUACACUAAUUCUUUCACACGUGGU [SHAPE_invivo_SARS-CoV-2_Motif_403]	-0.0417	0.101	0.388	0.688

Sequence	pull-down binding Z-score [1]	pull-down binding Z-score [2]	pull-down binding Z-score (TO-N3 (biotin conjugate))	pull-down binding Z-score [3]
UACAAACUUGUG [DMSMaPseq_invitro_SARS-CoV-2_Motif_398]	-0.625	-0.609	-1.02	-1.04
GUCUCUAUAGAAAUAGAGAU	0.213	-0.397	-0.156	-1.36
AACUGCUUUUGGCUUAGUUGCAGAGUGGUU	-0.63	-0.132	-0.115	-0.255
GGCGUUGUCCUGCUGAAAUUGUUGACACUGUGAGUGCUUUGGUUUAUGAUAAUAAGCUUAAAGCACAUAAAGACAAAUCAGCUCAAUGCU	-0.58	-0.302	-0.324	0.182
UCUGCACUGUUAGCGGGUACAAUCACUUCUGGUUGGACCUUUGGUGCAGG	-0.66	-0.38	-0.815	-1.07
AUCACUAGGUUUCAAACUUUACUUGCUUUACAUAGAAGUUAUUUGACUCCUGGUGAU	-0.735	-0.375	-0.884	-1.03
CCCCAGGGAUGCAAAUAAGGGG [IAV_invivo_PB1_2_Motif_14+IAV_invivo_PB1_2_Motif_14]	0.0403	0.163	-0.0747	0.241
CAGCAAGAACUG [DMSMaPseq_invitro_SARS-CoV-2_Motif_202]	-0.324	-0.578	-0.633	-0.724
GGUGUUUAUUACC	-0.454	-0.382	-0.968	-0.855
CCUCUAAAAGCCCCAAAAGAAAUUAUCUUCUUAGAGGGAGAAACACUUCCCACAGAAGUGUUAACAGAGG	-0.556	-0.139	-0.162	0.314
CCCUGAACACAAUGACCAAAGAUGCUGAGAGAGGG [IAV_invivo_PB1_2_Motif_12+IAV_invivo_PB1_2_Motif_12]	-0.218	0.103	0.143	0.884
GUUUUUCUGUUUGGAACUUUAAUUUUAGCCAUGGCAGAUUCCAACGGUACUAUUACCGUUGAAGAGCUUAAAAAGCUCCUUGAAC	-0.86	-0.23	-0.856	-0.41
AGUUCAAGAAAUUCAACU	-0.166	-0.224	-0.478	-0.672
GAAUUUACACCUUUUGAUGUUGUUAGACAAUGCUCAGGUGUUACUUUC	0.167	-0.394	0.0292	-0.632
GAUCAGUUUCACCUAAACUGUUC	-1.06	-0.626	-1.46	-1.08
UAAAUUUUUGGCUUUGUGUGCUGACUCUAUCAUUAUUGGUGGAGCUAAACUUAAAGCCUUGAAUUUA	-0.848	0.0426	-0.962	-1.2
GCACCUCAUGGUGU	0.707	-0.649	0.66	-0.856
GGCAUCAUAUGGGUUGCAACUGAGGGAGCCUUGAAUACACCAAAAGAUCACAUUGGCACCCGCAAUCCUGCUAACAAUGCU [DMSMaPseq_invitro_SARS-CoV-2_Motif_513]	-0.63	-0.241	-0.253	0.342
CCAUUUCAUCUUUUAAAUGG	-0.598	-0.38	-0.985	-0.946
GGUGAAGGACGGGUCCAGUAGUUCGCUACUGUUGAGUAGAGUGUGAGCUCC [BabySpinach]	1.09	0.648	2.08	2.02
CAUUACUUUAUGAUG [SHAPE_invitro_SARS-CoV-2_Motif_468]	0.168	-0.259	-0.055	-1.02
GCCGGUAGCACACCUUGUAAUGGUGUUGAAGGU [SHAPE_invitro_SARS-CoV-2_Motif_416]	0.478	-0.509	0.452	0.332
AAAUAAGUACGAUACUUACCUG [U1snRNP5ss-3]	-0.109	0.279	-0.0474	0.324

Sequence	pull-down binding Z-score [1]	pull-down binding Z-score [2]	pull-down binding Z-score (TO-N3 (biotin conjugate))	pull-down binding Z-score [3]
GCGCUGCCAGAAACUGGCUAGCGC [bulge-U]	0.183	-0.328	-0.0999	-0.75
GUGGCACUGAGAAUUUGACUAAAGAAGGUGCCAC	0.452	0.147	0.595	0.38
AGGUUGGACAGCUGGUGCUGCAGCUU [SHAPE_invivo_SARS-CoV-2_Motif_420]	0.658	0.159	0.754	0.891
UGGGAUUAUCCUA [DMSMaPseq_invitro_SARS-CoV-2_Motif_276]	0.251	-0.249	-0.106	-0.609
CAUGCUGAUUUUGACACAUGGUUUAGCCAGCGUG [DMSMaPseq_invitro_SARS-CoV-2_Motif_160]	-0.604	-0.409	-0.64	-0.276
CAUGAAGUGUGAUCAUUGUGGUGAAACUUCAUG	-0.496	-0.154	-0.605	-0.279
UGGCCCCGAUUUCAGCUAUGGUUA [SHAPE_invitro_SARS-CoV-2_Motif_146]	-0.129	-0.0487	-0.032	0.341
GGGAGAGACGAACAGUCGAUUGCC [IAV_invivo_PB2_1_Motif_17+IAV_invivo_PB2_1_Motif_17]	-0.434	-0.268	0.0259	0.839
GGUUUAACUUCUAUUAAAUGGGCAGAUAACAACUGUUAUCUUGCCACUGCAUUGUUAACACUCCAACAAAUAGAGUUGAAGUUUAAUCC	-0.726	-0.273	-0.793	-0.63
GGUCAGAAUGAUC [IAV_invivo_NP_5_Motif_12+IAV_invivo_NP_5_Motif_12]	-0.394	-0.0405	-0.601	-0.437
GGGUAGGGUUUGGGGGAGAGCGUGGGCUGGGGUUCAGGGACA [pre-miRNA-1229_WT_FL]	7.43	8.09	6.62	5.13
CUAACUGAGAAUAAAUAUUCUCAAUUAG	-0.985	-0.937	-1.59	-1.87
UCUCUAAUGAGA	-0.823	-0.652	-1.38	-1.53
CCAUUCUUCGUAAGGGUGG [DMSMaPseq_invitro_SARS-CoV-2_Motif_28]	0.0314	-0.245	-0.198	-0.66
CCUUCACACUCAAAGGCGGUGCACCAACAAAGGUUACUUUUGGUGAUGACACUGUGAUAGAAGUGCAAGG [SHAPE_invitro_SARS-CoV-2_Motif_51]	-0.728	-0.155	-0.605	-0.0884
GCUAGAAAAUCAGC [SHAPE_invivo_SARS-CoV-2_Motif_531]	-0.186	0.246	-0.0963	-0.164
UCUGCCUAUACAGUUGAACUCGGUACAGAAGUAAAUGAGUUCGCCUGUGUUGUGGCAGA [SHAPE_invivo_SARS-CoV-2_Motif_57]	-0.71	-0.334	-0.415	1.36
GGAAUUGUGUUAAUUGUGAUACAUUCU [SHAPE_invitro_SARS-CoV-2_Motif_150]	-0.83	-0.388	-0.949	-0.855
GCAGACGGGCGAUUUUGUUAAAGCCACUUGC	0.648	0.604	0.889	1.57
UCCUUUGACAUGAGUAAUGAAGGAUCUUAUUUCUUCGGAGACAAUGCAGAGGA [IAV_invivo_NP_5_Motif_26+IAV_invivo_NP_5_Motif_26]	-0.638	-0.286	-0.711	-0.0358
GGAGAAAAUUCC [IAV_invivo_PA_3_Motif_17+IAV_invivo_PA_3_Motif_17]	-0.517	-0.333	-0.797	-0.726
AAUAGAAGAAUUAUUCUAUU [SHAPE_invitro_SARS-CoV-2_Motif_349]	-0.546	-0.687	-0.867	-1.81
